US11819556B2, “Stabilized compositions of radionuclides and uses thereof” (RayzeBio, Inc., priority 2021, dated 2023)

Assay: Control formulation without excipient (WFI): radio-TLC purity
Type: physicochemical
Details: 0.02 mCi/ml; for free Actinium / fragments: 25° C.; for Percentage of ^225Ac present in [^225Ac]Ac-DOTA-TATE: pH 6.13, 25° C.
Procedure: The mixture was kept at room temperature (25° C.). At different time points, purity of [^225Ac]Ac-DOTA-TATE in the formulated dose were measured by radio-TLC as described in the table below: […]

(2,2′,2″-(10-(2-4(R)-1-(((4R,7S,10S,13R,16S,19R)-13-((1H-indol-3-yl)methyl)-10-(4-aminobutyl)-4-(((1S,2R)-1-carboxy-2-hydroxypropyl)carbamoyl)-16-(4-hydroxybenzyl)-7-((R)-1-hydroxyethyl)-6,9,12,15,18-pentaoxo-1,2-dithia-5,8,11,14,17-pentaazacycloicosan-19-yl)amino)-1-oxo-3-phenylpropan-2-yl)amino)-2-oxoethyl)-1,4,7,10-tetraazacyclododecane-1,4,7-triyl)triacetate; actinium-225(3+)) [[^225Ac]Ac-DOTA-TATE]
free Actinium (0 hour): 0.5% free Actinium
Percentage of ^225Ac present in [^225Ac]Ac-DOTA-TATE (0 hour): 99.5%
fragments (24 hours): 3.2%
free Actinium (24 hours): 2.0%
Percentage of ^225Ac present in [^225Ac]Ac-DOTA-TATE (24 hours): 94.8%
fragments (48 hours): 4.8%
free Actinium (48 hours): 3.5%
Percentage of ^225Ac present in [^225Ac]Ac-DOTA-TATE (48 hours): 91.8%
fragments (72 hours): 7.7%
free Actinium (72 hours): 8.8%
Percentage of ^225Ac present in [^225Ac]Ac-DOTA-TATE (72 hours): 83.5%
fragments (96 hours): 11.8%
free Actinium (96 hours): 9.2%
Percentage of ^225Ac present in [^225Ac]Ac-DOTA-TATE (96 hours): 79.1%
